Assay: yeast display, Sf9 membrane polyspecificity reagent, FACS + sequencing; frameworks hold sequencing errors
Outline: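 Galactose-induced (36–48 hours) yeast carrying a synthetic nanobody display library were exposed to 10% biotinylated, detergent-solubilized Sf9 membrane reagent at 4 °C for 1 hour. FACS followed streptavidin microbead enrichment, using low and high (top ~1%) gates for expression (anti-HA) and reagent binding (streptavidin). Colony PCR, MiSeq 2 × 250 sequencing and CDR-length filtering followed. Labels for polyreactivity reflect the gate of origin.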

Row | Sequence | polyreactivity (PSR sort gate)
1 | QVQLVESGGGLVQAGGSLRLSCAASGSIILQNAMGWYRQAPGKERELVAAITNGGSTNYADSVKGRFTISRDNAKNTVYLQMNSLKPEDTAVYYCAAYPLYTGSYDRGGYWGQGTQVTVSS | low polyreactivity
2 | QVQLVESGGGLVQAGGSLRLSCAASGSTFIWYAMGWYRQAPGKERELVAAINRSGGSTYYADSVKGRFTISRDNAKNTVYLQMNSLKPEDTAVYYCAAQGGGYRGLKYYYWGQGTQVTVSS | high polyreactivity
3 | QVQLVESGGGLVQAGGSLRLSCAASGSTLYVNAMGWYRQAPGKERELVAAISWSGGSTNYADSVKGRFTISRDNAKNTVYLQMNSLKPEDTAVYYCNVDSVVWDNAWYLYDYWGQGTQVTVSS | low polyreactivity
4 | QVQLVESGGGLVQSGGSLRLSCAASGRTFRYYAMGWYRQAPGKERELVAAISSSGDRTYYADSVKGRFTISRDNAKNTVYLQMNSLKPEDTAVYFCAADRGARGDYWGQGTQVTVSS | high polyreactivity
5 | QVQLVESGGGLVQAGGSLRLICAASGSIFDPYAMGWYRQAPGKERELVAAITYSAARTYYADSVKGRFTISRDNAKNTVYLQMNSLKPEDTAVYYFNRVVRREAERYDYWGQGTQVTVSS | high polyreactivity
6 | QVQIVESGGGLVQAGGSLRLSCAASGIIFYYYAMGWYRQAPGKERELVAAITKSGGSTYYADSVKGRFTISRDNAKNTVYLQMNSLKPEDTAVYYCAAEYSYYPLVGLDYWGQGTQVTVSS | low polyreactivity
7 | QVQLVESGGGLVQAGGSLRLSSAASGFIFSYNAMRWYRQARGKERELVAAITYSDGGTYADSVKARFTISRDNAKNTVDLQMHSLKPEDTAVYYCARRQVLYSRDFEYDYWGQGTLVTVSS | low polyreactivity
8 | QVQLVESGGGLVQAGGSLRLSCAASGSTFDNYAMGWYRQAPGKERELVAVITQSGGITFYADSVKGRFTISRDNAKNTVYLQMNSLKPEDTAVYYCNVELDRSWYYYWGQGTQVTVSS | low polyreactivity
9 | QVQLVESGGGLVQAGGSLRLSCSASGFTFRVNALGWYRQAPGKERELVAAITYSGGSTYYADSVKGRFTISRDNAKNTVYLQMNSLNPEDTAVYYCAAGYFFPRLRFRNYAYGYWGQGTQVTVST | high polyreactivity
10 | QVQLVESGGGLVQAGGSLRLSCAASGRIFQRNVMGWYRQAPGKERELVASITGGGTTNYADSVKGRFTISRDNAKNTVYLQMNSLKPEDTAVYYCAKGYGASNDPGYVRKRYGYWGQGTQVTVSS | low polyreactivity
11 | QVQLVESGGGLVQAGGSLRLSCAASGSTFVYYAMGWYRQAPGKERELVAVISDDGGTYYADSVKGRFSISRDNAKNTVYLQMNSLKPEDTAVYYCAKDYYGGAYYWYNDRSGDYWGQGTQVTVSS | low polyreactivity
12 | QVQLVESGGGLVQAGGSLRLSCAASGSTFYKYAMGWYRQAPGKERELVAAISTRGGSTYYADSVKWRFTISRDNAKNTVYLQMNSLKPEDTAVFYCAADGRGGHDVYWGQGSQVTVSS | high polyreactivity
13 | QVQLVESGGGLVQAGGSLRLSCAASGRILAPYAMGWYRQAPGKERELVAAISASGGTTYYADSVKGRFTISRDNAKNTVYLQMNSLKPEDTAVYYCNARWSPGNLRYGREGDYWGQGTQVTVSS | high polyreactivity
14 | QVQLVESGGGLVQAGGSLRLSCAASGRTFKYYAMGWYRQAPGKERELVASISASGGSTRYADSVKGRFTISRDNAKNTVYLQMNSLKPEDTAVYYCAADRGYKYYYWGLGTQVTVSS | high polyreactivity
15 | QVQLVESGGGLVQAGGSLRLSCAASGRIFTPYAMGWYRQAPGKERELVAVIRDGSTYYADSVKGRFTISRDNAKNTVYLQMNSLKPEDTAVYYCAVRHRYTRAYWGRDYWGQGTQVTVSS | low polyreactivity
16 | QVQLVESGGGLVQAGGSLRLSCAAYGSTFRYYTMGWYRQAPGKERELVAAISGSGGITYYADSLKGRFTISRDNAKNTVYLQMNSLKPEDTAVYYCAAESRYYPYWGQSVQYDYWGQGTQVTVSS | high polyreactivity
17 | QVQLVESGGGLVQAGGSLRLSCAASGRIFDVNAMGWYRQAPGKERELVAAITYSDGSTYYADSVTGRFTISRDNAKNTVYLQMNSLKPEDTAVDYCAATQEPVTPQPYGYWGQGTQVTVSS | low polyreactivity
18 | QVQLVESCGGLVQAGGSLRLSCAASGFTFPYYTMGWYRQAPGKERELVATITGGGSTNYADSVKGRFTISRDNAKNTVYLQKNSLKPEDTAVYYCAAKRWSGYGYYGWYDYWGQGTQVTVSS | high polyreactivity
19 | QVQLQESGGLVQAGGLRLSCAASGSDSYQEDMAWYRQAPGKERELVATISFGANTNYADSVKGRFTISRDNAKNTVYLQMNSLKPEDTAVYYCAAESLFDDYYGYWGQGTQVTVSS | low polyreactivity
20 | QGQLVETGGGLVQAGGSLRLSCAASGRSSVSMLMGWYRQPPGKERELVARITGSGGSTFYADSVKGRFTISRDNAKNTVYLQMNSLIPEDTAVYYCAAGYLWRGRYNYWGQGTQVTVSS | high polyreactivity
21 | QVQLVESWGGLVQAGGSLRLSCAASGRTFIRYTMGWYRQAPGKERELVASIRYSGASTSYADSVKGRFTISRDNAKNTVYLQMNSLKPEDTAVYYCAADRYWWWYNSPYSGMDYWGQGTQVTVSS | high polyreactivity
22 | QVQLVESGGGLVQAGGSLLLSCSASGRNFRANAMGWYRQAHRKERELVAAITSTGDRTYYADSVKGRFTISRDNAKNTVYLQMNSLKQEDTAVYYCAAENNRYGGYRKYDYWGLGTQVTVSS | low polyreactivity

Row | Sequence | polyreactivity (PSR sort gate)
23 | QVQLVESGGGLVQAGGSLRLSCAASGSIFSYNAMGWNRQAPGKESELVAAISWSGGRTYYADSVKGRFTISRDNAKNTVYLQMNSLKPEDTAVYYCNAQYRLYSEFNYWGQGTQVTVSS | high polyreactivity
24 | QVQLVESGGGLVQAGGSLRLSCAASGSIFVYYAMGWYRQAPGKERELVATIRGSGGSTYYADSVKGRFTISRDNAKNTVYLQMNSLKPEDTAVYYCAATIKYGGRWYGSWGQGTQVTVSS | high polyreactivity
25 | QVQLVESGGGLVQAGGSLRLSCAASGRIFPYCAMGWYRQAPGKEREFVAAITSSGGSTYYADSVKGRFTISRDNAKNTVYLQMNSLKREDTAVYFCFAVRHYALYAGRPYDYWGQGTEVTVSS | low polyreactivity
26 | QVQLVESGGGLVQAGGSLRLSCAASGSTFSQNAMGWYRQAPGKERELVAVISSSGGRTNYADSVKGRFTISRDNAKNTVYLQMNSLKPEDTSVYYCAKRLRVLYYYWGQGTQVTVSS | high polyreactivity
27 | QVQLVESGGGLVQAGGSLRLSRAASGFIFVQNAMVWYRQAPGKERELVASLTSGGTTNYADSVKGRFTISRDNAKNTVYLQMNSLKPEDTAVYYCNARLERTPSLYLYGSWGQGTQVTESS | low polyreactivity
28 | QVQLVESGGGLDQAGGSIRLSCAASGFIYDGNAMGSYRQAPGKERELVAAISSGGGTTYYADSVKGRFTISRDNAKNTVYLQMNSLKPEDTAVYYCADDALSDEYDYWGQGTQVTVSS | low polyreactivity
29 | QVQLEESGGGLVQAGGSLRLSCAASGRTFYIYVMGWYRPAPGKERELVASITKRVGGTFYADSVKGRFTISGDNAKNTVYLQMNSLKPEDTAVYYCNARARKSIRVGGYNYWGQGTQVTVSS | high polyreactivity
30 | QVQLVESGGGLVQAGGSLRLSCAASGRIFVYNAMGWSRQAPGKVRELVASITSSGGSTSYADSVKGRFTISRDNAKNTVYLQMNSLKPEDTAVYSCAADVQPDTRSTPEMDYWGQGTQVTVSS | low polyreactivity
31 | QVQLQESGGGLVQGGGSLRLSCAASGSIYRSWYMGWYRQAPGKERELVASITEGATTNYAYSVKAALPLAAITRNTVYLQMDSMKPEDTAVYYRAASFGSTYDLVYWGQGTQVTVSS | high polyreactivity
32 | QVQLVESGGGLVQAGGSLRLSCAASGRTYPGYSMGWYRQAPGKERELVAAITRGSTNYADSVKGRFTISRDNAKNTVYLQMNSLKPEYTAVYYCATRGYYYWTHYDYWGHGTQVTVSS | low polyreactivity
33 | QVQLEESGGRLVQAGGSLRLSCAASGLIFAVYAMGWYRQAPGKERELVASSTGSTYYADSVKGRFTISRDNAKNTVYLQMNSLKPEDHAVYYCAADIIRVLDIPLYYWGQGSQVTVSS | low polyreactivity
34 | QVQLVESGGGLVQAGGSLRLSCAASGRTYGYYAMGWYRQAPGKERELVAAITRSGGSTYYADSVKGRFTISRDNAKNTVYLQMNSLKPEDTAVYYCNAVYYKGYGYWGQGSQVTVSS | high polyreactivity
35 | QVQLVESGGGLVQAGGSLRLSCAASGLTFVYNAMGWYRQAPGKERELVADISYDGGGTYYADSVKGRFTISRDNAMNTVYLQMNSLKPEDTAVYYCAKRAFGSQGEISYTPPGYDSWGQGTQVTVSS | low polyreactivity
36 | QVQLVESGGGLVQAGGSLRLSCAASGITFASYAMGWYRQAPGKERELVAAISTRSGGTYYADSVKGRFTISRDNAKNTVYLQMNSLKPEETAVYYCAAYNVIYTRRMYYWGQGTQVTVSS | high polyreactivity
37 | QVQLQEGGGLVQAGGSLRLSCPASGYISSRPAMGCYRQAPGKERAFVATIADGTSTYYADSVKCRFTISRDNAKNTVYLQMNSLKPEDTEVYYCAAAYNTEFYLSYWGQGTQVTVSS | high polyreactivity
38 | QVQLVESAAGLVQAGGSLSLICAASGYIFATYAMGWYIQAPGTETELVAAITSGGITNYADSVKGRFTISRDNAKNTVYLQMNSLKPEDTAVYYCATGRRRYYFREYYYWGQGTQVTVSS | high polyreactivity
39 | QVQLVESGGGLVQAGGSLRLSCAASGFIFSWNAMGWYRQAPGKERELVAGISWSGGSTYYADSVKGRFTISRDNAKNTVYLQMNSLKPEDTAVYYCAKEPSVGTGGVYRYGRGDYWGQGTQVTVSS | low polyreactivity
40 | QFQLVESVRGLVQAGVSLRLSCAASGSTFNFYAMGLYRQPPGKERELVAAIRQSSGRTYYADSVKGRFTISRDNGNYTVYLQMNSLKPEDTAVYYCAAVRYNFNFKMYYWGQGTQVTVSS | high polyreactivity
41 | QVQLVESGGVLDQAGGSLRLSFAASGFTFGAYAMGWYRHAPGKETELVASISWSGGSTYYADSVKGRFTISRDNAKNPVYLQMNSVKPEDTAVYYCNKDFVYPEDDGLFDFWGQGTQVTVSS | low polyreactivity
42 | QVQLVESGGGLVQAGGSLRLSCASSGFTLGYYTMGWYRQAPGKESELVAAIRSNGGSTYYADSVKGRFTISRDNAKNTVYLQMNSLKPEDTAVYYCAARRWRYVGTRYDYWGQGTQVTVSS | high polyreactivity
43 | QVQLQESGGGLVQPGGSLRLSCAATGTISDSGLMGWYRQAPGKERELVSGISSGGITQYADSVNGRFTISRDNAKNTVYLQMNSLKPEDTAVYWGQGTQVTVSS | low polyreactivity
